Measured values as given in patent US20240150489A1 (ICHNOS SCIENCES, published 2024).

Tests used:
[1] = biological target: T1, recombinant human CD38-ECD-C-his (human, UniProt P28907 43-300); test: SPR, Fab captured as ligand, CD38 analyte
T1 construct: Extracellular region fused to 6-His, made in house; also called human CD38-C-His; recombinant human CD38 protein
Procedure: (§1) Affinities of the Fab to human and cynomolgus CD38 using the Fab as ligand were measured on a Biacore T200 instrument (Biacore, GE Healthcare) at 25° C. and analyzed with the BiacoreT200 Evaluation Software (v3.1). […] The affinities to human and cynomolgus monkey CD38 were assessed by immobilizing Fab fragments and using human or cynomolgus monkey CD38 protein as analyte. Around 50-200 RU of Fab was captured on flow-path 2 of a Series S CM5 Sensor Chip coupled with anti-human Fab antibodies. Human or cynomolgus monkey CD38 was injected in multi cycle kinetic at different concentrations ranging from 0.2 to 100 nM, in HBS-EP+ buffer (Biacore, GE Healthcare, catalog NO: BR100669) at a flow rate of 30 μl/min for 5 min on flow-path 1 and 2 (flow-path 1 being used as reference). Dissociation was monitored for 10 min. […] Experimental data were processed using the 1:1 Langmuir kinetic fitting model. Measurements included zero-concentration samples for referencing. Chi², U- and residual values were used to evaluate the quality of a fit between the experimental data and individual binding models.

[2] = biological target: T2, recombinant cynomolgus monkey CD38-ECD-C-his (cynomolgus monkey, UniProt Q5VAN0 45-301); test: SPR, Fab captured as ligand, cyno CD38 analyte
T2 construct: Extracellular region fused to 6-His; also called cyno CD38-C-His; recombinant cynomolgus monkey CD38 protein
Procedure: as §1

[3] = biological target: T2, recombinant cynomolgus monkey …; test: SPR, His-captured cyno CD38, Fab as analyte
[4] = biological target: T3, recombinant biotinylated human CD38 Avitag, His Tag (Acrobiosystems, CD8-H82E7) (human, UniProt P28907 43-300, biotinylated (Avitag)); test: SPR, biotinylated CD38 captured, Fab as analyte
T3 construct: Bought protein; also called biotinylated human CD38-avi-his protein; biotinylated recombinant human CD38 protein

[5] = biological target: T2, recombinant cynomolgus monkey …; test: SPR, His-captured cyno CD38, Fab analyte, 1:1 fit
Procedure: (§2) Surface plasmon resonance (SPR) was used to measure the binding affinities of the Fab fragments for human and cynomolgus monkey CD38. Affinities were measured on a Biacore T200 instrument (Biacore, GE Healthcare) at 25° C. and analyzed with the Biacore T200 Evaluation Software (v3.1).
(§3) The affinities to human and cynomolgus monkey CD38 were assessed by immobilizing CD38 and using Fab fragments as analyte. Biotinylated recombinant human CD38 protein was immobilized to around 160 RU on flow-path 2 of a Series S Sensor Chip SA or to around 100 RU on flow-path 2 of a Series S BiotinCAPture Chip and recombinant cynomolgus monkey CD38-his protein was immobilized to around 50-100 RU on flow-path 2 of a Series S CM5 Sensor Chip previously coated with anti-histidin antibody. Fab fragments were injected in single cycle kinetic at different concentrations ranging from 7.8 to 2000 nM, in HBS-EP+ buffer (Biacore, GE Healthcare, catalog NO: BR100669) at a flow rate of 30 μl/min for 3 min on flow-path 1 and 2 (flow-path 1 being used as reference). Dissociation was monitored for 5 min.

[6] = biological target: T3, recombinant biotinylated human CD38 …; test: SPR, biotinylated CD38 captured, Fab analyte, 1:1 fit;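 note: biacore T200 at 25 °C, single-cycle kinetics with Fab injected at 7.8–2000 nM for 3 min, dissociation followed 5 min, reference flow path subtracted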
Procedure: as §2, §3

Binder | Kd [1] | Kd [2] | Kd [3] | Kd [4] | Kd [5] | Kd [6]
anti-CD38-420-E2-RecB FAB (Fab, V domains shown, human IgG1 Fab) VH: QVQLVQSGAEVKKPGSSVKVSCKASGLPDATYAIGWVRQAPGQGLEWMGRIIPALAATHYAQKFQGRVTITADESTSTAYMELSSLRSEDTAVYYCARGLGYYLYSSYYFDIWGQGTLVTVSS VL: not shown | 0.0016 µM | 0.0044 µM |  |  |  | 
anti-CD38-E2-UCP02-F3 FAB (Fab, V domains shown, human IgG1 Fab; also called anti-CD38-E2-F3) VH: QVQLVQSGAEVKKPGSSVKVSCKASGGSFSNYAIGWVRQAPGQGLEWMGRIIPVLDAAHYAQKFQGRVTITADESTSTAYMELSSLRSEDTAVYYCARGLGYYLYSSYYFDIWGQGTLVTVSS VL: not shown | 0.00613 µM |  | 0.0024 µM | 0.0035 µM |  | 
anti-CD38-E2-UCP02-F8 FAB (Fab, V domains shown, human IgG1 Fab; also called anti-CD38-E2-F8) VH: QVQLVQSGAEVKKPGSSVKVSCKASGGSFSNYAIGWVRQAPGQGLEWMGRIIPSLDAGHYAQKFQGRVTITADESTSTAYMELSSLRSEDTAVYYCARGLGYYLYSSYYFDIWGQGTLVTVSS VL: not shown | 0.0162 µM |  | 0.0245 µM | 0.0176 µM |  | 
anti-CD38-E2-UCP01-A10 FAB (Fab, V domains shown, human IgG1 Fab) VH: QVQLVQSGAEVKKPGSSVKVSCKASGLPDATYAIGWVRQAPGQGLEWMGRIIPVFGSAHYAQKFQGRVTITADESTSTAYMELSSLRSEDTAVYYCARGLGYYLYSSYYFDIWGQGTLVTVSS VL: not shown | 0.0169 µM |  | 0.0086 µM | 0.0094 µM |  | 
anti-CD38-420-E2-RecD FAB (Fab, V domains shown, human IgG1 Fab) VH: QVQLVQSGAEVKKPGSSVKVSCKASGLPDATYAIGWVRQAPGQGLEWMGRIIPALGGVHYAQKFQGRVTITADESTSTAYMELSSLRSEDTAVYYCARGLGYYLYSSYYFDIWGQGTLVTVSS VL: not shown | 0.0067 µM | 0.0221 µM |  |  |  | 
anti-CD38-E2-UCP02-D6 FAB (Fab, V domains shown, human IgG1 Fab) VH: QVQLVQSGAEVKKPGSSVKVSCKASGGSFSNYAIGWVRQAPGQGLEWMGRIIPRLDAEHYAQKFQGRVTITADESTSTAYMELSSLRSEDTAVYYCARGLGYYLYSSYYFDIWGQGTLVTVSS VL: not shown | 0.00535 µM |  | 0.0011 µM | 0.0049 µM |  | 
anti-CD38-E2-UCP02-A5 FAB (Fab, V domains shown, human IgG1 Fab) VH: QVQLVQSGAEVKKPGSSVKVSCKASGGSFSNYAIGWVRQAPGQGLEWMGRIIPDLGAAHYAQKFQGRVTITADESTSTAYMELSSLRSEDTAVYYCARGLGYYLYSSYYFDIWGQGTLVTVSS VL: not shown | 0.035 µM |  | 0.0044 µM | 0.0236 µM |  | 
anti-CD38-E2-UCP02-E7 FAB (Fab, V domains shown, human IgG1 Fab) VH: QVQLVQSGAEVKKPGSSVKVSCKASGGSFSNYAIGWVRQAPGQGLEWMGRIIPALAATHYAQKFQGRVTITADESTSTAYMELSSLRSEDTAVYYCARGLGYYLYSSYYFDIWGQGTLVTVSS VL: not shown | 0.00466 µM |  | 0.0018 µM | 0.0022 µM |  | 
anti-CD38-E2-UCP02-G8 FAB (Fab, V domains shown, human IgG1 Fab) VH: QVQLVQSGAEVKKPGSSVKVSCKASGGSFSNYAIGWVRQAPGQGLEWMGRIIPALGGVHYAQKFQGRVTITADESTSTAYMELSSLRSEDTAVYYCARGLGYYLYSSYYFDIWGQGTLVTVSS VL: not shown | 0.0077 µM |  | 0.0042 µM | 0.0052 µM |  | 
anti-CD38-420-E2-RecA FAB (Fab, V domains shown, human IgG1 Fab; also called anti-CD38-E2-RecA) VH: QVQLVQSGAEVKKPGSSVKVSCKASGLPDATYAIGWVRQAPGQGLEWMGRIIPRLDAEHYAQKFQGRVTITADESTSTAYMELSSLRSEDTAVYYCARGLGYYLYSSYYFDIWGQGTLVTVSS VL: not shown | 0.0009 µM | 0.0037 µM |  |  |  | 
anti-CD38-420-E2-RecC FAB (Fab, V domains shown, human IgG1 Fab) VH: QVQLVQSGAEVKKPGSSVKVSCKASGLPDATYAIGWVRQAPGQGLEWMGRIIPVLDAAHYAQKFQGRVTITADESTSTAYMELSSLRSEDTAVYYCARGLGYYLYSSYYFDIWGQGTLVTVSS VL: not shown | 0.0013 µM | 0.0039 µM |  |  |  | 
Anti-CD38-UCP03-A6 Fab (Fab, V domains shown, human IgG1 Fab) VH: QVQLVQSGAEVKKPGSSVKVSCKASGGDFSLYAISWVRQAPGQGLEWMGGIIPLLGEPVYAQKFQGRVTITADESTSTAYMELSSLRSEDTAVYYCARGHRVYSSSPFDYWGQGTLVTVSS VL: not shown |  |  |  |  | 0.525 µM | 0.41 µM
Anti-CD38-UCP03-H3 Fab (Fab, V domains shown, human IgG1 Fab) VH: QVQLVQSGAEVKKPGSSVKVSCKASGGVFSQFPISWVRQAPGQGLEWMGGIIAGYGATEYAQKFQGRVTITADESTSTAYMELSSLRSEDTAVYYCARVYGGIDWGQGTLVTVSS VL: not shown |  |  |  |  | 0.178 µM | 0.81 µM
Anti-CD38-UCP03-B1 Fab (Fab, V domains shown, human IgG1 Fab) VH: QVQLVQSGAEVKKPGSSVKVSCKASGGGFSKYFITWVRQAPGQGLEWMGGVIPKIGYTSYAQKFQGRVTITADESTSTAYMELSSLRSEDTAVYYCARGSDDYASYSPLDSWGQGTLVTVSS VL: not shown |  |  |  |  | 0.462 µM | 0.882 µM
Anti-CD38-UCP03-H2 Fab (Fab, V domains shown, human IgG1 Fab) VH: QVQLVQSGAEVKKPGSSVKVSCKASGGEFSIYVISWVRQAPGQGLEWMGRVIPSTGDTNYAQKFQGRVTITADESTSTAYMELSSLRSEDTAVYYCARGKAYYSGWLAIWGQGTLVTVSS VL: not shown |  |  |  |  | 0.672 µM | 1.85 µM
anti-CD38-B6-MP01-D9 FAB (Fab, V domains shown, human IgG1 Fab; also called anti-CD38-B6-D9) VH: QVQLVQSGAEVKKPGSSVKVSCKASGGFFSHYIINWVRQAPGQGLEWMGRVIPVIDDAYYAQKFQGRVTITADESTSTAYMELSSLRSEDTAVYYCARSRGYYGSFYFDIWGQGTLVTVSS VL: not shown | 0.0023 µM | 0.0052 µM | 0.00333 µM | 0.00055 µM |  | 
anti-CD38-B6-MP02-C1 FAB (Fab, V domains shown, human IgG1 Fab) VH: QVQLVQSGAEVKKPGSSVKVSCKASGGHQLGKIINWVRQAPGQGLEWMGRVIPVIDDAYYAQKFQGRVTITADESTSTAYMELSSLRSEDTAVYYCARSRGYYGSFYFDIWGQGTLVTVSS VL: not shown | 0.0977 µM | 0.333 µM | 0.0672 µM | 0.012 µM |  | 
anti-CD38-B6-MP01-H3b FAB (Fab, V domains shown, human IgG1 Fab) VH: QVQLVQSGAEVKKPGSSVKVSCKASGGPFQSNIVNWIRQAPGQGLEWMGRVIPVIDDAYYAQKFQGRVTITADESTSTAYMELSSLRSEDTAVYYCARSRGYYGSFYFDIWGQGTLVTVSS VL: not shown | 0.171 µM | 0.33 µM | 0.13 µM | 0.0289 µM |  | 
anti-CD38-B6-MP01-B4 FAB (Fab, V domains shown, human IgG1 Fab) VH: QVQLVQSGAEVKKPGSSVKVSCKASGYEFNTYIINWVRQAPGQGLEWMGRVIPVIDDAYYAQKFQGRVTITADESTSTAYMELSSLRSEDTAVYYCARSRGYYGSFYFDIWGQGTLVTVSS VL: not shown | 0.0516 µM | 0.167 µM | 0.0454 µM | 0.0119 µM |  | 
anti-CD38-B6-MP02-B10 FAB (Fab, V domains shown, human IgG1 Fab) VH: QVQLVQSGAEVKKPGSSVKVSCKASGGHNLGKIINWVRQPPGQGLEWMGRVIPVIDDAYYAQKFQGRVTITADESTSTAYMELSSLRSEDTAVYYCARSRGYYGSFYFDIWGQGTLVTVSS VL: not shown | 0.108 µM | 0.528 µM | 0.0812 µM | 0.0201 µM |  | 
anti-CD38-B6-MP02-G11 FAB (Fab, V domains shown, human IgG1 Fab) VH: QVQLVQSGAEVKKPGSSVKVSCKASGGHTLPPIINWVRQAPGQGLEWMGRVIPVIDDAYYAQKFQGRVTITADESTSTAYMELSSLRSEDTAVYYCARSRGYYGSFYFDIWGQGTLVTVSS VL: not shown | 0.128 µM | 0.534 µM | 0.262 µM | 0.425 µM |  | 
anti-CD38-B6-MP01-H3a FAB (Fab, V domains shown, human IgG1 Fab) VH: QVQLVQSGAEVKKPGSSVKVSCKASGGPFNANIVNWIRQAPGQGLEWMGRVIPVIDDAYYAQKFQGRVTITADESTSTAYMELSSLRSEDTAVYYCARSRGYYGSFYFDIWGQGTLVTVSS VL: not shown | 0.0894 µM | 0.389 µM | 0.12 µM | 0.0283 µM |  | 
anti-CD38-B6-MP01-A4 FAB (Fab, V domains shown, human IgG1 Fab) VH: QVQLVQSGAEVKKPGSSVKVSCKASGGPFSDYVINWVRQAPGQGLEWMGRVIPVIDDAYYAQKFQGRVTITADESTSTAYMELSSLRSEDTAVYYCARSRGYYGSFYFDIWGQGTLVTVSS VL: not shown | 0.227 µM | 0.828 µM | 0.229 µM | 0.0849 µM |  | 
anti-CD38-B6-MP01-C2 FAB (Fab, V domains shown, human IgG1 Fab) VH: QVQLVQSGAEVKKPGSSVKVSCKASGGAFSDYVISWVRQAPGQGLEWMGRVIPVIDDAYYAQKFQGRVTITADESTSTAYMELSSLRSEDTAVYYCARSRGYYGSFYFDIWGQGTLVTVSS VL: not shown | 0.345 µM |  |  | 0.209 µM |  | 
anti-CD38-B6-MP02-C2 FAB (Fab, V domains shown, human IgG1 Fab) VH: QVQLVQSGAEVKKPGSSVKVSCKASGGHGQQRIINWVRQAPGQGLEWMGRVIPVIDDAYYAQKFQGRVTITADESTSTAYMELSSLRSEDTAVYYCARSRGYYGSFYFDIWGQGTLVTVSS VL: not shown | 0.404 µM | 0.342 µM |  | 0.101 µM |  | 
